From paper PMC4624055 (The Journal of allergy and clinical immunology, 2015)

B1: Bla g 5 (enzyme, Blattella germanica, UniProt O18598 1-204, looked up)
chain: MAPSYKLTYCPVKALGEPIRFLLSYGEKDFEDYRFQEGDWPNLKPSMPFGKTPVLEIDGKQTHQSVAISRYLGKQFGLSGKDDWENLEIDMIVDTISDFRAAIANYHYDADENSKQKKWDPLKKETIPYYTKKFDEVVKANGGYLAAGKLTWADFYFVAILDYLNHMAKEDLVANQPNLKALREKVLGLPAIKAWVAKRPPTDL
B2: Asc s 13 (enzyme, Ascaris suum, UniProt P46436 1-206, looked up)
chain: MPQYKLTYFDIRGLGEGARLIFHQAGVKFEDNRLKREDWPALKPKTPFGQLPLLEVDGEVLAQSAAIYRYLGRQFGLAGKTPMEEAQVDSIFDQFKDFMAELRPCFRVLAGFEEGDKEKVLKEVAVPARDKHLPLLEKFLAKSGSEYMVGKSVTWADLVITDSLASWESLIPDFLSGHLQLKKYIEHVRELPNIKKWIAERPKTPY

Molecular target: the molecule itself
Test: crystal structure

| Protein | stoichiometry N |
| --- | --- |
| B1 | 2 |
| B2 | 2 |
